Data reported in paper PMC6182170, “A protein–protein interaction underlies the molecular basis for substrate recognition by an adenosine-to-inosine RNA-editing enzyme”.

Molecular target: T1, ADR-1 WT (Caenorhabditis elegans, UniProt Q9U3D6 1-964)
T1 sequence: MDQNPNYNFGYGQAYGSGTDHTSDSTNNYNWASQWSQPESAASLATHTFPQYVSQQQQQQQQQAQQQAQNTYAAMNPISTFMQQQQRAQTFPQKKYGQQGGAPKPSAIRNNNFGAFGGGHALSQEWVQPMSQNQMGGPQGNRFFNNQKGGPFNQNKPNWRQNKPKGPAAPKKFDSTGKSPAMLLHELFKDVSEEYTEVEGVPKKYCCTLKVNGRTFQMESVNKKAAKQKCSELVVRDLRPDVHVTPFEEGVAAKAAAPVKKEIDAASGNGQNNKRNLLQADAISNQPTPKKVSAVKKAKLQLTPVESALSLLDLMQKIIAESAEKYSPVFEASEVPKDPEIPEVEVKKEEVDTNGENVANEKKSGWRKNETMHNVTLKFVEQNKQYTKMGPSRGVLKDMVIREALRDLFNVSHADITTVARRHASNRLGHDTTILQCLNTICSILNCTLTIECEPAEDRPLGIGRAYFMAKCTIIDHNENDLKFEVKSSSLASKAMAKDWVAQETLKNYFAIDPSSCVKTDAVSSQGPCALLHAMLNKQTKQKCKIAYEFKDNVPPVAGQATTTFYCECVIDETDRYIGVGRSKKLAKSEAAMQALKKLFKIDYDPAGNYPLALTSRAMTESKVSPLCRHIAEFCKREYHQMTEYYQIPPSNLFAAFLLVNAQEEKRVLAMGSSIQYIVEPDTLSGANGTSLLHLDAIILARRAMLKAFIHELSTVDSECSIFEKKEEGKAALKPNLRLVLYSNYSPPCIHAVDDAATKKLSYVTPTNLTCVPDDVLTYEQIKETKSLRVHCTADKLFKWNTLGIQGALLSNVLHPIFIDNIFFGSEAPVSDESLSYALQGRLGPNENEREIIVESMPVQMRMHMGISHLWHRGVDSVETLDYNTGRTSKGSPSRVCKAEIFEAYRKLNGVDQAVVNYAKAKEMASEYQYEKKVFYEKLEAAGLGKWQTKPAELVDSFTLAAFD
Test: EMSA; apparent Kd; EMSA: 20 pM dsRNA, 50 mM KCl, 10 mM Tris-HCl pH 8.0, 10% glycerol, 1 mM MgCl2, 0.5 mM DTT, on ice 30 min; native 6% gel, 0.5x TBE, 4 C
Conditions: protein: recombinant; tags: N-terminal 6xHis (TEV site); label: 5' 32P on ssRNAs (PNK); imperfect duplex; printed strands 45 and 46 nt

B1: lam-2 3'UTR 46 bp dsRNA (dsRNA)
RNA 1: AGACACACAUACAAAAUUUACAAAAAUUGUUAAUUGACAAAAUAC
RNA 2: GUGUUUUGCCAAUUAACGAUUUUUUGUAAAUUUUAUAUGUGUCUCU
B1 was tested, and the Kd was 1.75 ± 0.15 nM.
